To fix the notation:
B1: bispecific CEA (A5H1EL1D)-CD28 (SA Variant 15) 1+1 IgG of Example 10.3 (bispecific antibody)
heavy 1: EVQLLESGGGLVQPGGSLRLSCAASGFTFTDYYMNWVRQAPGKGLEWLGFIGNKANAYTTEYSASVKGRFTISRDKSKNTLYLQMNSLRAEDTATYYCTRDRGLRFYFDYWGQGTTVTVSSASTKGPSVFPLAPSSKSTSGGTAALGCLVKDYFPEPVTVSWNSGALTSGVHTFPAVLQSSGLYSLSSVVTVPSSSLGTQTYICNVNHKPSNTKVDKKVEPKSCDKTHTCPPCPAPEAAGGPSVFLFPPKPKDTLMISRTPEVTCVVVDVSHEDPEVKFNWYVDGVEVHNAKTKPREEQYNSTYRVVSVLTVLHQDWLNGKEYKCKVSNKALGAPIEKTISKAKGQPREPQVCTLPPSRDELTKNQVSLSCAVKGFYPSDIAVEWESNGQPENNYKTTPPVLDSDGSFFLVSKLTVDKSRWQQGNVFSCSVMHEALHNHYTQKSLSLSP
light 1: EIVLTQSPATLSLSPGERATLSCRASSSVTYIHWYQQKPGQAPRSWIYATSNLASGIPARFSGSGSGTDFTLTISSLEPEDFAVYYCQHWSSKPPTFGQGTKLEIKRTVAAPSVFIFPPSDEQLKSGTASVVCLLNNFYPREAKVQWKVDNALQSGNSQESVTEQDSKDSTYSLSSTLTLSKADYEKHKVYACEVTHQGLSSPVTKSFNRGEC
heavy 2: not shown
light 2: not shown
notes: knob-into-hole, crossmab, PG-LALA
B2: bispecific CEA (P005.102)-CD28 (SA Variant 15) 1+1 IgG (bispecific antibody)
heavy 1: EIVLTQSPATLSLSPGERATLSCRASSSVTYIHWYQQKPGQAPRSWIYATSNLASGIPARFSGSGSGTDFTLTISSLEPEDFAVYYCQHWSSKSPTFGQGTKLEIKSSASTKGPSVFPLAPSSKSTSGGTAALGCLVKDYFPEPVTVSWNSGALTSGVHTFPAVLQSSGLYSLSSVVTVPSSSLGTQTYICNVNHKPSNTKVDKKVEPKSCDKTHTCPPCPAPEAAGGPSVFLFPPKPKDTLMISRTPEVTCVVVDVSHEDPEVKFNWYVDGVEVHNAKTKPREEQYNSTYRVVSVLTVLHQDWLNGKEYKCKVSNKALGAPIEKTISKAKGQPREPQVCTLPPSRDELTKNQVSLSCAVKGFYPSDIAVEWESNGQPENNYKTTPPVLDSDGSFFLVSKLTVDKSRWQQGNVFSCSVMHEALHNHYTQKSLSLSP
light 1: EVQLLESGGGLVQPGGSLRLSCAASGFTFTDYYMNWVRQAPGKGLEWLGFIGNKANAYTTEYSASVKGRFTISRDKSKNTLYLQMNSLRAEDTATYYCTRDRGIRFQFDYWGQGTTVTVSSASVAAPSVFIFPPSDEQLKSGTASVVCLLNNFYPREAKVQWKVDNALQSGNSQESVTEQDSKDSTYSLSSTLTLSKADYEKHKVYACEVTHQGLSSPVTKSFNRGEC
heavy 2: not shown
light 2: not shown
notes: as for B1
B3: bispecific CEA (P005.102-combo1)-CD28 (SA Variant 15) 1+1 IgG (bispecific antibody)
heavy 1: EIVLTQSPATLSLSPGERATLSCRASSSVTYIHWYQQKPGQAPRSWIYATSNLASGIPARFSGSGSGTDFTLTISSLEPEDFAVYYCQHWSSKSPTFGQGTKLEIKSSASTKGPSVFPLAPSSKSTSGGTAALGCLVKDYFPEPVTVSWNSGALTSGVHTFPAVLQSSGLYSLSSVVTVPSSSLGTQTYICNVNHKPSNTKVDKKVEPKSCDKTHTCPPCPAPEAAGGPSVFLFPPKPKDTLMISRTPEVTCVVVDVSHEDPEVKFNWYVDGVEVHNAKTKPREEQYNSTYRVVSVLTVLHQDWLNGKEYKCKVSNKALGAPIEKTISKAKGQPREPQVCTLPPSRDELTKNQVSLSCAVKGFYPSDIAVEWESNGQPENNYKTTPPVLDSDGSFFLVSKLTVDKSRWQQGNVFSCSVMHEALHNHYTQKSLSLSP
light 1: EVQLLESGGGLVQPGGSLRLSCAASGFYFTDYYMNWVRQAPGKGLEWLGVISNKANAYTTEYSASVKGRFTISRDKSKNTLYLQMNSLRAEDTATYYCTRDRGIRFQFDYWGQGTTVTVSSASVAAPSVFIFPPSDEQLKSGTASVVCLLNNFYPREAKVQWKVDNALQSGNSQESVTEQDSKDSTYSLSSTLTLSKADYEKHKVYACEVTHQGLSSPVTKSFNRGEC
heavy 2: not shown
light 2: not shown
notes: as for B1
B4: bispecific CEA (P005.097)-CD28 (SA Variant 15) 1+1 IgG (bispecific antibody)
heavy 1: EIVLTQSPATLSLSPGERATLSCRASSSVTYIHWYQQKPGQAPRSWIYATSNLASGIPARFSGSGSGTDFTLTISSLEPEDFAVYYCQHWSSQPPTFGQGTKLEIKSSASTKGPSVFPLAPSSKSTSGGTAALGCLVKDYFPEPVTVSWNSGALTSGVHTFPAVLQSSGLYSLSSVVTVPSSSLGTQTYICNVNHKPSNTKVDKKVEPKSCDKTHTCPPCPAPEAAGGPSVFLFPPKPKDTLMISRTPEVTCVVVDVSHEDPEVKFNWYVDGVEVHNAKTKPREEQYNSTYRVVSVLTVLHQDWLNGKEYKCKVSNKALGAPIEKTISKAKGQPREPQVCTLPPSRDELTKNQVSLSCAVKGFYPSDIAVEWESNGQPENNYKTTPPVLDSDGSFFLVSKLTVDKSRWQQGNVFSCSVMHEALHNHYTQKSLSLSP
light 1: EVQLLESGGGLVQPGGSLRLSCAASGFTFTDYYMNWVRQAPGKGLEWLGFIGNKANAYTTEYSASVKGRFTISRDKSKNTLYLQMNSLRAEDTATYYCTRDRGLRFSFDYWGQGTTVTVSSASVAAPSVFIFPPSDEQLKSGTASVVCLLNNFYPREAKVQWKVDNALQSGNSQESVTEQDSKDSTYSLSSTLTLSKADYEKHKVYACEVTHQGLSSPVTKSFNRGEC
heavy 2: not shown
light 2: not shown
notes: as for B1
B5: bispecific CEA (P002.139)-CD28 (SA Variant 15) 1+1 IgG (bispecific antibody)
heavy 1: EIVLTQSPATLSLSPGERATLSCHASSSVTYIHWYQQKPGQAPRSWIYATSNLASGIPARFSGSGSGTDFTLTISSLEPEDFAVYYCQHWSSKPPTFGQGTKLEIKSSASTKGPSVFPLAPSSKSTSGGTAALGCLVKDYFPEPVTVSWNSGALTSGVHTFPAVLQSSGLYSLSSVVTVPSSSLGTQTYICNVNHKPSNTKVDKKVEPKSCDKTHTCPPCPAPEAAGGPSVFLFPPKPKDTLMISRTPEVTCVVVDVSHEDPEVKFNWYVDGVEVHNAKTKPREEQYNSTYRVVSVLTVLHQDWLNGKEYKCKVSNKALGAPIEKTISKAKGQPREPQVCTLPPSRDELTKNQVSLSCAVKGFYPSDIAVEWESNGQPENNYKTTPPVLDSDGSFFLVSKLTVDKSRWQQGNVFSCSVMHEALHNHYTQKSLSLSP
light 1: EVQLLESGGGLVQPGGSLRLSCAASGFYFTDYAMNWVRQAPGKGLEWLGVISNKANAYTTEYSASVKGRFTISRDKSKNTLYLQMNSLRAEDTATYYCTRDRGLRFYFDYWGQGTTVTVSSASVAAPSVFIFPPSDEQLKSGTASVVCLLNNFYPREAKVQWKVDNALQSGNSQESVTEQDSKDSTYSLSSTLTLSKADYEKHKVYACEVTHQGLSSPVTKSFNRGEC
heavy 2: not shown
light 2: not shown
notes: as for B1
B6: bispecific CEA (P001.177)-CD28 (SA Variant 15) 1+1 IgG (bispecific antibody)
heavy 1: EIVLTQSPATLSLSPGERATLSCRASSSVTYIHWYQQKPGQAPRSWIYATSNLASGIPARFSGSGSGTDFTLTISSLEPEDFAVYYCQHWSSKPPTFGQGTKLEIKSSASTKGPSVFPLAPSSKSTSGGTAALGCLVKDYFPEPVTVSWNSGALTSGVHTFPAVLQSSGLYSLSSVVTVPSSSLGTQTYICNVNHKPSNTKVDKKVEPKSCDKTHTCPPCPAPEAAGGPSVFLFPPKPKDTLMISRTPEVTCVVVDVSHEDPEVKFNWYVDGVEVHNAKTKPREEQYNSTYRVVSVLTVLHQDWLNGKEYKCKVSNKALGAPIEKTISKAKGQPREPQVCTLPPSRDELTKNQVSLSCAVKGFYPSDIAVEWESNGQPENNYKTTPPVLDSDGSFFLVSKLTVDKSRWQQGNVFSCSVMHEALHNHYTQKSLSLSP
light 1: EVQLLESGGGLVQPGGSLRLSCAASGFYFTDYYMNWVRQAPGKGLEWLGFISNKANAYTTEYSASVKGRFTISRDKSKNTLYLQMNSLRAEDTATYYCTRDRGLRFYFDYWGQGTTVTVSSASVAAPSVFIFPPSDEQLKSGTASVVCLLNNFYPREAKVQWKVDNALQSGNSQESVTEQDSKDSTYSLSSTLTLSKADYEKHKVYACEVTHQGLSSPVTKSFNRGEC
heavy 2: not shown
light 2: not shown
notes: as for B1

The target of the assay is T1, N(A2B2)A-avi-His (biotinylated at the avi tag).
T1 construct: also called biotinylated N(A2B2)A-avi-His
T1 chain: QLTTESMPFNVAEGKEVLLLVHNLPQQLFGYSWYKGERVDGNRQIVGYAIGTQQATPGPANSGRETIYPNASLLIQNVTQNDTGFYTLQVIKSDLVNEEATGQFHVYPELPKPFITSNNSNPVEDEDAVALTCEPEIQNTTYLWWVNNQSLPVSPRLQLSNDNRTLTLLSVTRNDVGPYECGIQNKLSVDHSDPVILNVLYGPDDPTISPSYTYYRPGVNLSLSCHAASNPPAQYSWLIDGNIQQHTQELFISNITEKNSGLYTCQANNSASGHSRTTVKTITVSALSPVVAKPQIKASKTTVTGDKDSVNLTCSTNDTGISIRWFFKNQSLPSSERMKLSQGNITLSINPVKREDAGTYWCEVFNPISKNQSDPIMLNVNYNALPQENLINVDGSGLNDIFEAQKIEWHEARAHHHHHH
Put plainly: SPR, ProteOn, antigen on NLC chip, bispecific IgG as analyte. Background: Surface plasmon resonance follows binding to a sensor surface in real time, without labels.
Procedure: About 2000, 1000, 500, and 250 RU of biotinylated N(A2B2)A-avi-His were immobilized on 4 channels of a Streptavidin-coated NLC chip in vertical orientation. As a control for non-specific binding, 2000 RU of biotinylated NA(B2)A-avi-His protein was immobilized on channel 5. For the determination of the affinity (KD) of the purified bispecific constructs, injection direction was changed to horizontal orientation. […] Buffer (PBST) was injected along the sixth channel to provide an “in-line” blank for referencing. Regeneration was performed with 10 mM glycine pH 1.5 for 20 s at 50 ul/min (vertical orientation).
Association rate constants (kon) and dissociation rate constants (koff) were calculated using a simple one-to-one Langmuir binding model in ProteOn Manager v3.1 software by simultaneously fitting the association and dissociation sensorgrams. The equilibrium dissociation constant (KD) was calculated as the ratio koff/kon.
As to B1, the affinity, expressed as Kd, was 2.11 nM; the koff (commonly the rate constant with which the complex falls apart) was 0.000333 s⁻¹; the on-rate (kon) – broadly, the rate constant with which the complex forms – amounted to 158000 M⁻¹ s⁻¹.

As to B2, binding was put at a Kd of 0.2 nM, the koff turned out to be 3.31e-05 s⁻¹ and the kon was found to be 160000 M⁻¹ s⁻¹.

In the case of B3, the Kd (usually a measure of binding affinity in units of concentration) was determined as 0.06 nM, the koff is 1.23e-05 s⁻¹ and the on-rate constant (kon) was determined as 207000 M⁻¹ s⁻¹.

With B4, the affinity, expressed as Kd, was 0.33 nM; the koff turned out to be 8.87e-05 s⁻¹; the kon was 269000 M⁻¹ s⁻¹.

On to B5, for which binding was put at a Kd of 0.39 nM, the koff came to 9.7e-05 s⁻¹ and the kon stood at 249000 M⁻¹ s⁻¹.

With B6, the equilibrium dissociation constant (Kd) was 0.43 nM, the koff turned out to be 8.83e-05 s⁻¹ and the kon was found to be 205000 M⁻¹ s⁻¹.
